Results as given in PMC9012472 (Science Advances, 2022).
Each block holds one binder with its values, some of them ahead of it.

Molecular target: T1, human Inturned (human, UniProt Q9ULD6 1-942)
T1 sequence (looked up): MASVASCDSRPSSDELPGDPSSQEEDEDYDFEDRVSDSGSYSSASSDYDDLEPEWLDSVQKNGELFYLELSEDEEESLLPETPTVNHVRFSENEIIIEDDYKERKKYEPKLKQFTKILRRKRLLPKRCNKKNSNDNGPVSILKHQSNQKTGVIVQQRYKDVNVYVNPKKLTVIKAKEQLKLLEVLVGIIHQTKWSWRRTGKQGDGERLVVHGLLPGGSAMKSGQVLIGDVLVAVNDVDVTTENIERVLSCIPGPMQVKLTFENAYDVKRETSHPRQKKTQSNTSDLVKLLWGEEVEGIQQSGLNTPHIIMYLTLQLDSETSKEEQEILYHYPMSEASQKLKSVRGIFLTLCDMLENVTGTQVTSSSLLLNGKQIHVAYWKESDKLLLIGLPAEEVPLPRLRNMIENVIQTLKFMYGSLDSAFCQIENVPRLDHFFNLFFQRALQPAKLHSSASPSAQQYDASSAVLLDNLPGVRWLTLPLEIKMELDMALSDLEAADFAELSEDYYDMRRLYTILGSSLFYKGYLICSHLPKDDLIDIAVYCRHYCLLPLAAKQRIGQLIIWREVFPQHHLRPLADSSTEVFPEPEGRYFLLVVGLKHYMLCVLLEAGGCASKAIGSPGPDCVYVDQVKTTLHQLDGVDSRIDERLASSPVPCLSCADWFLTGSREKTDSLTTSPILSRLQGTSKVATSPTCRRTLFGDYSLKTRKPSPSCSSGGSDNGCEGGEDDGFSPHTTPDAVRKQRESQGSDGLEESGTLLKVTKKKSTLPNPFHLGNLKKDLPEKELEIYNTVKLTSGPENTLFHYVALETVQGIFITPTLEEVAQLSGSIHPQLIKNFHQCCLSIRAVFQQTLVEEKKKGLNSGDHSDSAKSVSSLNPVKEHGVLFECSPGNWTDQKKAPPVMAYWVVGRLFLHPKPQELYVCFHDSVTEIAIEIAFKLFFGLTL
Assay: cryo-EM structure

binding result: binds
B1: human Wdpcp (natural protein, UniProt O95876 1-746, looked up)
chain: MRREFCWDAYSKAAGSRASSPLPRQDRDSFCHQMSFCLTELHLWSLKNTLHIADRDIGIYQYYDKKDPPATEHGNLEKKQKLAESRDYPWTLKNRRPEKLRDSLKELEELMQNSRCVLSKWKNKYVCQLLFGSGVLVSLSLSGPQLEKVVIDRSLVGKLISDTISDALLTDSFIILSFLAQNKLCFIQFTKKMESSDVNKRLEKLSALDYKIFYYEIPGPINKTTERHLAINCVHDRVVCWWPLVNDDAWPWAPISSEKDRANLLLLGYAQGRLEVLSSVRTEWDPLDVRFGTKQPYQVFTVEHSVSVDKEPMADSCIYECIRNKIQCVSVTRIPLKSKAISCCRNVTEDKLILGCEDSSLILYETHRRVTLLAQTELLPSLISCHPSGAILLVGSNQGELQIFDMALSPINIQLLAEDRLPRETLQFSKLFDASSSLVQMQWIAPQVVSQKGEGSDIYDLLFLRFERGPLGVLLFKLGVFTRGQLGLIDIIFQYIHCDEIYEAINILSSMNWDTLGHQCFISMSAIVNHLLRQKLTPEREAQLETSLGTFYAPTRPLLDSTILEYRDQISKYARRFFHHLLRYQRFEKAFLLAVDVGARDLFMDIHYLALDKGELALAEVARKRASDIDAESITSGVELLGPLDRGDMLNEAFIGLSLAPQGEDSFPDNLPPSCPTHRHILQQRILNGSSNRQIIDRRNELEKDICSGFLMTNTCNAEDGELREDGREQEIRDGGSLKMIHFGLV

binding result: binds
B2: human Fuzzy (natural protein, UniProt Q9BT04 1-418, looked up)
chain: MGEEGTGGTVHLLCLAASSGVPLFCRSSRGGAPARQQLPFSVIGSLNGVHMFGQNLEVQLSSARTENTTVVWKSFHDSITLIVLSSEVGISELRLERLLQMVFGAMVLLVGLEELTNIRNVERLKKDLRASYCLIDSFLGDSELIGDLTQCVDCVIPPEGSLLQEALSGFAEAAGTTFVSLVVSGRVVAATEGWWRLGTPEAVLLPWLVGSLPPQTARDYPVYLPHGSPTVPHRLLTLTLLPSLELCLLCGPSPPLSQLYPQLLERWWQPLLDPLRACLPLGPRALPSGFPLHTDILGLLLLHLELKRCLFTVEPLGDKEPSPEQRRRLLRNFYTLVTSTHFPPEPGPPEKTEDEVYQAQLPRACYLVLGTEEPGTGVRLVALQLGLRRLLLLLSPQSPTHGLRSLATHTLHALTPLL
